Laboratory results reported in article doi:10.1101/2021.11.04.467292.

Key:
[1] = molecular target: KLIF motor domain lacking the N-terminal extension fused to GFP (Trypanosoma brucei); test: gliding filament motility assay
[2] = molecular target: microtubules polymerised from bovine tubulin, paclitaxel-stabilised (bovine) (UniProt Q6B856); test: two-MT assay
[3] = molecular target: microtubules polymerised from bovine tubulin, paclitaxel-stabilised (bovine) (UniProt Q6B856); test: TIRF microscopy of Qdot-bound motor on immobilised microtubules

**Q.** Which percent of filaments dissociated within 2.5 minutes [1] does the source give for “microtubules polymerised from bovine tubulin, paclitaxel-stabilised (from UniProt Q6B856 1-445) (complex)” here?
**A.** > 50%

**Q.** For “KLIF motor domain construct (amino acids 1-672) fused to a C-terminal GFP (mClover3) tag (domain or fragment)”, which half-life of plus end to plus end tethering of two MTs by KLIF [2] is on record?
**A.** 1.7 min

**Q.** How did the half-life of association with MTs [3] turn out when “KLIF motor domain construct (amino acids 1-672) fused to a C-terminal biotin tag (domain or fragment)” was run?
**A.** > 5 min
